According to PMC10786891, “Massively parallel profiling of RNA-targeting CRISPR-Cas13d”:
Positions count from the first letter of the chain named.

T1: EsCas13d, nuclease-dead (Eubacterium siraeum, UniProt B0MS50, R295A;H300A;R849A;H854A)
T1 sequence: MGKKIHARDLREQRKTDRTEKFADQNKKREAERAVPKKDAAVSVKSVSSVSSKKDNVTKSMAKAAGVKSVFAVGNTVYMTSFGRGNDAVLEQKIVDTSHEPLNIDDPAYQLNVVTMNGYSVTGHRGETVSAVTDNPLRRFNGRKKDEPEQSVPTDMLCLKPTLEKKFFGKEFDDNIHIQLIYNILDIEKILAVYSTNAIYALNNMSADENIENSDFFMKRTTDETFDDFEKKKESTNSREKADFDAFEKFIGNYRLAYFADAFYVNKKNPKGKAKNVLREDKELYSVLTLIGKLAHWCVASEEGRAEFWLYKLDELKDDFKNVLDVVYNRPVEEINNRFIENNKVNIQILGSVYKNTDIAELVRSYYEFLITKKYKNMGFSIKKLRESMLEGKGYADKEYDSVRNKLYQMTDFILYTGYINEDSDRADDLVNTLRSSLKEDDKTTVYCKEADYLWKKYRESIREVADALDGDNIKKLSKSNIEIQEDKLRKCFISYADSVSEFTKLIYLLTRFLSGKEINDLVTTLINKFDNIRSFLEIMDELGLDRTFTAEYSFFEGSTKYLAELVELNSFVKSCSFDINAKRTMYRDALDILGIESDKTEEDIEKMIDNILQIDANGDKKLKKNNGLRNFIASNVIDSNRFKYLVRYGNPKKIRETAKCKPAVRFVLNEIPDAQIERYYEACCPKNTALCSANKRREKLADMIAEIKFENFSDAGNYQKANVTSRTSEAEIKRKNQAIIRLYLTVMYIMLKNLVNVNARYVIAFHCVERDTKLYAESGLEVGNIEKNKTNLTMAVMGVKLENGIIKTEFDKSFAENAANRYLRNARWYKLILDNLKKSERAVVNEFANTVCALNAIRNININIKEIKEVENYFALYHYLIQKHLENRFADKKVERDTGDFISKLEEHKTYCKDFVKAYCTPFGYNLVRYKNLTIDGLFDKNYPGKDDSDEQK

B1: target 1 MT 5'PFS UCG 3'PFS ACA (mixed)
RNA 1: CACCCGUGCAAAAAUGCAGGGGUCUAAAACUGAGCGGAUAACCUCUCUAUGG
RNA 2: GGGAAUGGAUCCACAUCUACGAAUUCUCGCCAUAGAGAGGUUAUCCGCUCAACAAGAUCGGAAGAGCACACGU
B2: target 1 MT 5'PFS UGC 3'PFS AUU (mixed)
RNA 1: B1 RNA 1
RNA 2: B1 RNA 2 with C28G, G29C, C53U, A54U
B3: target 1 MT 5'PFS GUG 3'PFS CCG (mixed)
RNA 1: B1 RNA 1
RNA 2: B1 RNA 2 with U27G, C28U, A52C, A54G
B4: target 1 del5,del13 (mixed)
RNA 1: B1 RNA 1
RNA 2: GGGAAUGGAUCCACAUCUACGAAUUCGUACCAUAGAGAGUUAUCCCUCACCGAGAUCGGAAGAGCACACGU
B5: target 1 MT 5'PFS GAG 3'PFS ACG (mixed)
RNA 1: B1 RNA 1
RNA 2: B1 RNA 2 with U27G, C28A, A54G
B6: target 1 MT 5'PFS GGA 3'PFS AUC (mixed)
RNA 1: B1 RNA 1
RNA 2: B1 RNA 2 with U27G, C28G, G29A, C53U, A54C
B7: target 1 MT 5'PFS GUG 3'PFS CCA (mixed)
RNA 1: B1 RNA 1
RNA 2: B1 RNA 2 with U27G, C28U, A52C
B8: target 1 MT 5'PFS GAG 3'PFS ACA (mixed)
RNA 1: B1 RNA 1
RNA 2: B1 RNA 2 with U27G, C28A
B9: target 1 MT 5'PFS GGA 3'PFS UGA (mixed)
RNA 1: B1 RNA 1
RNA 2: B1 RNA 2 with U27G, C28G, G29A, A52U, C53G
B10: target 1 MT 5'PFS UGC 3'PFS AUC (mixed)
RNA 1: B1 RNA 1
RNA 2: B1 RNA 2 with C28G, G29C, C53U, A54C
B11: target 1 MT 5'PFS CAA 3'PFS UGA (mixed)
RNA 1: B1 RNA 1
RNA 2: B1 RNA 2 with U27C, C28A, G29A, A52U, C53G
B12: target 1 insU 3' of 18,insA 3' of 12 (mixed)
RNA 1: B1 RNA 1
RNA 2: GGGAAUGGAUCCACAUCUACGAAUUCGUACCAUAUGAGAGGAUUAUCCGCUCACCGAGAUCGGAAGAGCACACGU
B13: target 1 MT 5'PFS GGA 3'PFS AUG (mixed)
RNA 1: B1 RNA 1
RNA 2: B1 RNA 2 with U27G, C28G, G29A, C53U, A54G
B14: target 1 MT 5'PFS CCC 3'PFS AUG (mixed)
RNA 1: B1 RNA 1
RNA 2: B1 RNA 2 with U27C, G29C, C53U, A54G
B15: target 1 MT 5'PFS UGC 3'PFS AUG (mixed)
RNA 1: B1 RNA 1
RNA 2: B1 RNA 2 with C28G, G29C, C53U, A54G
B16: target 1 MT 5'PFS GGC 3'PFS AGC (mixed)
RNA 1: B1 RNA 1
RNA 2: B1 RNA 2 with U27G, C28G, G29C, C53G, A54C
B17: target 1 MT 5'PFS CAU 3'PFS UCA (mixed)
RNA 1: B1 RNA 1
RNA 2: B1 RNA 2 with U27C, C28A, G29U, A52U
B18: target 1 MT 5'PFS GGA 3'PFS UGU (mixed)
RNA 1: B1 RNA 1
RNA 2: B1 RNA 2 with U27G, C28G, G29A, A52U, C53G, A54U
B19: target 1 MT 5'PFS GUG 3'PFS CCC (mixed)
RNA 1: B1 RNA 1
RNA 2: B1 RNA 2 with U27G, C28U, A52C, A54C
B20: target 1 MT 5'PFS UCG 3'PFS ACC (mixed)
RNA 1: B1 RNA 1
RNA 2: B1 RNA 2 with A54C
B21: target 1 MT 5'PFS CAU 3'PFS UCU (mixed)
RNA 1: B1 RNA 1
RNA 2: B1 RNA 2 with U27C, C28A, G29U, A52U, A54U
B22: target 1 MT 5'PFS UGC 3'PFS AUA (mixed)
RNA 1: B1 RNA 1
RNA 2: B1 RNA 2 with C28G, G29C, C53U
B23: target 1 MT 5'PFS GUG 3'PFS CCU (mixed)
RNA 1: B1 RNA 1
RNA 2: B1 RNA 2 with U27G, C28U, A52C, A54U
B24: target 1 MT 5'PFS UGC 3'PFS UAU (mixed)
RNA 1: B1 RNA 1
RNA 2: B1 RNA 2 with C28G, G29C, A52U, C53A, A54U
B25: target 1 MT 5'PFS GCG 3'PFS ACC (mixed)
RNA 1: B1 RNA 1
RNA 2: B1 RNA 2 with U27G, A54C
B26: target 1 MT 5'PFS CAC 3'PFS UUU (mixed)
RNA 1: B1 RNA 1
RNA 2: B1 RNA 2 with U27C, C28A, G29C, A52U, C53U, A54U
B27: target 1 insU 3' of 2,insC 3' of 1 (mixed)
RNA 1: B1 RNA 1
RNA 2: GGGAAUGGAUCCACAUCUACGAAUUCGUACCAUAGAGAGGUUAUCCGCUCUACCCGAGAUCGGAAGAGCACACGU
B28: target 1 MT 5'PFS GAG 3'PFS ACU (mixed)
RNA 1: B1 RNA 1
RNA 2: B1 RNA 2 with U27G, C28A, A54U
B29: target 1 MT 5'PFS UUG 3'PFS UUG (mixed)
RNA 1: B1 RNA 1
RNA 2: B1 RNA 2 with C28U, A52U, C53U, A54G
B30: target 1 MT 5'PFS GCA 3'PFS CUC (mixed)
RNA 1: B1 RNA 1
RNA 2: B1 RNA 2 with U27G, G29A, A52C, C53U, A54C
B31: target 1 MT 5'PFS GGA 3'PFS AUA (mixed)
RNA 1: B1 RNA 1
RNA 2: B1 RNA 2 with U27G, C28G, G29A, C53U
B32: target 1 MT 5'PFS UCC 3'PFS UAU (mixed)
RNA 1: B1 RNA 1
RNA 2: B1 RNA 2 with G29C, A52U, C53A, A54U
B33: target 1 insA 3' of 11,insC 3' of 8 (mixed)
RNA 1: B1 RNA 1
RNA 2: B27 RNA 2 with U42A, A43U, U44A, C45U, G47C, U49G, A52C, C53A
B34: target 1 MT 5'PFS GCA 3'PFS CUG (mixed)
RNA 1: B1 RNA 1
RNA 2: B1 RNA 2 with U27G, G29A, A52C, C53U, A54G
B35: target 1 MT 5'PFS CAU 3'PFS ACU (mixed)
RNA 1: B1 RNA 1
RNA 2: B1 RNA 2 with U27C, C28A, G29U, A54U
B36: target 1 MT 5'PFS CCA 3'PFS UAA (mixed)
RNA 1: B1 RNA 1
RNA 2: B1 RNA 2 with U27C, G29A, A52U, C53A
B37: target 1 MT 5'PFS GGA 3'PFS AUU (mixed)
RNA 1: B1 RNA 1
RNA 2: B1 RNA 2 with U27G, C28G, G29A, C53U, A54U
B38: target 1 MT 5'PFS AAU 3'PFS UGA (mixed)
RNA 1: B1 RNA 1
RNA 2: B1 RNA 2 with U27A, C28A, G29U, A52U, C53G
B39: target 1 MT 5'PFS GGA 3'PFS UGC (mixed)
RNA 1: B1 RNA 1
RNA 2: B1 RNA 2 with U27G, C28G, G29A, A52U, C53G, A54C

The binders below were run against T1, EsCas13d, nuclease-dead (assay: crRNA (strand 1, pre-loaded); Mg2+; 40 mM Tris-HCl pH 7.5, 150 mM NaCl, 6 mM MgCl2, 1 mM DTT, 0.1% Tween-20, 0.2 mg/ml BSA; 25 C; 10 min per concentration, then washed). Details: tags: His6-TwinStrep-SUMO cleaved; N-terminal SNAP kept (SNAP-Surface 488); label: 3' end held by stalled T7 RNA polymerase.
For B1, the Kd was 36 ± 8 nM. In the case of B2, the Kd is reported as 18.6 ± 5.1 nM. B3 was tested, and the Kd was 11.7 ± 1.05 nM. B4 was tested, and the Kd was 11.5 ± 0.9 nM. In the case of B5, the Kd is reported as 32 ± 8.5 nM. B6 was tested, and the Kd was 22.5 ± 9 nM. With B7 the Kd was 46 ± 7.5 nM. With B8 the Kd was ~43 nM. Binder B9 has a Kd of 16.2 ± 3.15 nM. With B10 the Kd was 52.5 ± 23 nM. Work on B11 yielded a Kd of ~41 nM. B12 showed a Kd of 63 ± 14 nM. With B13 the Kd was 34.5 ± 6.5 nM. B14 was tested, and the Kd was 31 ± 14 nM. Binder B15 has a Kd of ~55.5 nM. Work on B16 yielded a Kd of 9.95 ± 1.75 nM. For B17, the Kd was ~35 nM. B18 showed a Kd of 48 ± 13 nM. With B19 the Kd was 23 ± 4 nM. With B20 the Kd was 32.5 ± 14 nM. Work on B21 yielded a Kd of ~65 nM. With B22 the Kd was 16.5 ± 6 nM. With B23 the Kd was 10.6 ± 1.1 nM. For B24, the Kd was 13.8 ± 5 nM. Work on B25 yielded a Kd of 20 ± 8.5 nM. With B26 the Kd was 7.15 ± 2.4 nM. B27 gave a Kd of 11.1 ± 0.5 nM. Binder B28 has a Kd of 24.9 ± 4.75 nM. B29 gave a Kd of 18.2 ± 3.2 nM. For B30, the Kd was ~19.5 nM. B31 showed a Kd of 29 ± 7 nM. Binder B32 has a Kd of ~12.6 nM. B33 showed a Kd of 16.7 ± 1.1 nM. Work on B34 yielded a Kd of 11.9 ± 3.35 nM. With B35 the Kd was 61.5 ± 26 nM. B36 gave a Kd of 3.85 ± 1.9 nM. B37 was tested, and the Kd was 17.6 ± 3.55 nM. B38 was tested, and the Kd was 61 ± 17 nM. Binder B39 has a Kd of 8.3 ± 1.1 nM.
